For 9 proteins, Km and Vmax results are on record in patent US9512459B2 (priority 2011, dated 2016).

Substrate in this data set: OC[C@H]1OC(O)[C@H](O)[C@@H](O)[C@@H]1O
Put plainly: cells, lysate or membranes named. In kind it is biochemical, Aspergillus niger. The note with it: other: 60 ml culture, crude enzyme, glucose 1-40 mM, pH 6.5, DCIP/PMS, 20.0 °C.

Method: The transformant BL21 (DE3) expressing each mutated enzyme was precultured. The transformant was inoculated in an amount of 1% with respect to 60 ml of a medium A using a 300-ml baffled flask and shake-cultured under conditions involving 20° C., 28 hours, and 125 rpm. After collection of 50 ml of the medium, the bacterial cells were suspended by the addition of BugBuster (registered trademark) protein extraction reagent (Novagen/Merck KGaA) at a ratio of 5 ml per g of wet cells and incubated at room temperature for 15 minutes with gentle shaking. Insoluble fractions were removed by centrifugation (15 Krpm, 4° C., 20 minutes). Then, the obtained supernatant was dialyzed overnight at 4° C. against a 20 mM potassium phosphate buffer solution (pH 6.5). After the completion of the dialysis, the dialysate was centrifuged, and the supernatant was used as a crude enzyme preparation. Insoluble fractions were suspended in a 20 mM potassium phosphate buffer solution (pH 6.5) at a ratio of 1 ml per 2 ml of the suspension containing the insoluble fractions.
The obtained Michaelis-Menten constant (Km value) and apparent maximum activity (Vmax) were determined from a saturation curve determined therefrom.

B1: Aspergillus niger glucose dehydrogenase (FAD-GDH) Ang-n2 variant T522S, SEQ ID NO: 2 (Aspergillus niger CBS 513.88; T522S) (protein)
chain: YDFVIVGGGTSGLVVANRLSELSDVTVAVIEAGESALNNFNVSNVMGYSTAFGTEVDWAYQTENQTYAGGLQQTIRAGKALGGTSTINGMSYTRAEDVQIDNWEVLGNDGWNWKNLFQYYKKSEGFQVPTKDQIAHGASYNASYHGLNGPLKVGWPNSMTNSSVFPVLEQTFEKLGVQYNPDSEGGKMVGFTVHPDTLDREMNVREDAARAYYWPYEARSNLKIISNTRANKVIWANTTQGEAVAVGIEVTNAYGTETIYADKEVILSAGALRSPAILELSGIGNPDVLNKHNIPVKVNITTVGENLQDQTNNALSWEGVDTLTGLATFSVLPSVNQLYGDNVTALASYVKSQLASYAKTVASASNGAVKEANLVEAFERQYDLIFNSQVPYTEVVFAPSGNSFAVEYWPLLPFSRGSVHIQSANASDYPAINPNYFMFDQDAEAQVTVAQYIRKALGTAPLNSLVGEEVSPGLDVLPASASSATWTKWVKENYRSNYHPVGTTSMLPREKGGVVSPELKVYGTKNVRVVDASVLPFQLCGHLTSTLYAVAERASDLIKESY
notes: pET30c, E. coli BL21(DE3), crude extract
Take B1: the Km turned out to be 2500 µM and the Vmax was 3.4 µmol/min/mg.

B2: Aspergillus niger glucose dehydrogenase (FAD-GDH) Ang-n2 variant N368K/T522S, SEQ ID NO: 2 (Aspergillus niger CBS 513.88; N368K/T522S) (protein)
chain: YDFVIVGGGTSGLVVANRLSELSDVTVAVIEAGESALNNFNVSNVMGYSTAFGTEVDWAYQTENQTYAGGLQQTIRAGKALGGTSTINGMSYTRAEDVQIDNWEVLGNDGWNWKNLFQYYKKSEGFQVPTKDQIAHGASYNASYHGLNGPLKVGWPNSMTNSSVFPVLEQTFEKLGVQYNPDSEGGKMVGFTVHPDTLDREMNVREDAARAYYWPYEARSNLKIISNTRANKVIWANTTQGEAVAVGIEVTNAYGTETIYADKEVILSAGALRSPAILELSGIGNPDVLNKHNIPVKVNITTVGENLQDQTNNALSWEGVDTLTGLATFSVLPSVNQLYGDKVTALASYVKSQLASYAKTVASASNGAVKEANLVEAFERQYDLIFNSQVPYTEVVFAPSGNSFAVEYWPLLPFSRGSVHIQSANASDYPAINPNYFMFDQDAEAQVTVAQYIRKALGTAPLNSLVGEEVSPGLDVLPASASSATWTKWVKENYRSNYHPVGTTSMLPREKGGVVSPELKVYGTKNVRVVDASVLPFQLCGHLTSTLYAVAERASDLIKESY
notes: as for B1
Regarding B2, the Km came to 3400 µM and the Vmax was 5.3 µmol/min/mg.

B3: Aspergillus niger glucose dehydrogenase (FAD-GDH) Ang-n2 variant E195K/Q196D, SEQ ID NO: 2 (Aspergillus niger CBS 513.88; E195K/Q196D) (protein)
chain: YDFVIVGGGTSGLVVANRLSELSDVTVAVIEAGESALNNFNVSNVMGYSTAFGTEVDWAYQTENQTYAGGLQQTIRAGKALGGTSTINGMSYTRAEDVQIDNWEVLGNDGWNWKNLFQYYKKSEGFQVPTKDQIAHGASYNASYHGLNGPLKVGWPNSMTNSSVFPVLKDTFEKLGVQYNPDSEGGKMVGFTVHPDTLDREMNVREDAARAYYWPYEARSNLKIISNTRANKVIWANTTQGEAVAVGIEVTNAYGTETIYADKEVILSAGALRSPAILELSGIGNPDVLNKHNIPVKVNITTVGENLQDQTNNALSWEGVDTLTGLATFSVLPSVNQLYGDNVTALASYVKSQLASYAKTVASASNGAVKEANLVEAFERQYDLIFNSQVPYTEVVFAPSGNSFAVEYWPLLPFSRGSVHIQSANASDYPAINPNYFMFDQDAEAQVTVAQYIRKALGTAPLNSLVGEEVSPGLDVLPASASSATWTKWVKENYRTNYHPVGTTSMLPREKGGVVSPELKVYGTKNVRVVDASVLPFQLCGHLTSTLYAVAERASDLIKESY
notes: as for B1
On to B3, for which the Km stood at 2900 µM and the Vmax was determined as 5.1 µmol/min/mg.

B4: Aspergillus niger glucose dehydrogenase (FAD-GDH) Ang-n2 variant N368K, SEQ ID NO: 2 (Aspergillus niger CBS 513.88; N368K) (protein)
chain: YDFVIVGGGTSGLVVANRLSELSDVTVAVIEAGESALNNFNVSNVMGYSTAFGTEVDWAYQTENQTYAGGLQQTIRAGKALGGTSTINGMSYTRAEDVQIDNWEVLGNDGWNWKNLFQYYKKSEGFQVPTKDQIAHGASYNASYHGLNGPLKVGWPNSMTNSSVFPVLEQTFEKLGVQYNPDSEGGKMVGFTVHPDTLDREMNVREDAARAYYWPYEARSNLKIISNTRANKVIWANTTQGEAVAVGIEVTNAYGTETIYADKEVILSAGALRSPAILELSGIGNPDVLNKHNIPVKVNITTVGENLQDQTNNALSWEGVDTLTGLATFSVLPSVNQLYGDKVTALASYVKSQLASYAKTVASASNGAVKEANLVEAFERQYDLIFNSQVPYTEVVFAPSGNSFAVEYWPLLPFSRGSVHIQSANASDYPAINPNYFMFDQDAEAQVTVAQYIRKALGTAPLNSLVGEEVSPGLDVLPASASSATWTKWVKENYRTNYHPVGTTSMLPREKGGVVSPELKVYGTKNVRVVDASVLPFQLCGHLTSTLYAVAERASDLIKESY
notes: as for B1
For B4, the Km was 4600 µM and the Vmax turned out to be 0.7 µmol/min/mg.

B5: Aspergillus niger glucose dehydrogenase (FAD-GDH) Ang-n2 variant E195K/Q196E/N368K/T522S, SEQ ID NO: 2 (Aspergillus niger CBS 513.88; E195K/N368K/Q196E/T522S) (protein)
chain: YDFVIVGGGTSGLVVANRLSELSDVTVAVIEAGESALNNFNVSNVMGYSTAFGTEVDWAYQTENQTYAGGLQQTIRAGKALGGTSTINGMSYTRAEDVQIDNWEVLGNDGWNWKNLFQYYKKSEGFQVPTKDQIAHGASYNASYHGLNGPLKVGWPNSMTNSSVFPVLKETFEKLGVQYNPDSEGGKMVGFTVHPDTLDREMNVREDAARAYYWPYEARSNLKIISNTRANKVIWANTTQGEAVAVGIEVTNAYGTETIYADKEVILSAGALRSPAILELSGIGNPDVLNKHNIPVKVNITTVGENLQDQTNNALSWEGVDTLTGLATFSVLPSVNQLYGDKVTALASYVKSQLASYAKTVASASNGAVKEANLVEAFERQYDLIFNSQVPYTEVVFAPSGNSFAVEYWPLLPFSRGSVHIQSANASDYPAINPNYFMFDQDAEAQVTVAQYIRKALGTAPLNSLVGEEVSPGLDVLPASASSATWTKWVKENYRSNYHPVGTTSMLPREKGGVVSPELKVYGTKNVRVVDASVLPFQLCGHLTSTLYAVAERASDLIKESY
notes: as for B1
In the case of B5, the Km stood at 3200 µM and the Vmax was determined as 6.1 µmol/min/mg.

B6: Aspergillus niger glucose dehydrogenase (FAD-GDH) Ang-n3, SEQ ID NO: 2 (26 N-terminal residues deleted, Met-Asn-Thr-Thr-Thr- added) (Aspergillus niger CBS … (protein)
chain: YDFVIVGGGTSGLVVANRLSELSDVTVAVIEAGESALNNFNVSNVMGYSTAFGTEVDWAYQTENQTYAGGLQQTIRAGKALGGTSTINGMSYTRAEDVQIDNWEVLGNDGWNWKNLFQYYKKSEGFQVPTKDQIAHGASYNASYHGLNGPLKVGWPNSMTNSSVFPVLEQTFEKLGVQYNPDSEGGKMVGFTVHPDTLDREMNVREDAARAYYWPYEARSNLKIISNTRANKVIWANTTQGEAVAVGIEVTNAYGTETIYADKEVILSAGALRSPAILELSGIGNPDVLNKHNIPVKVNITTVGENLQDQTNNALSWEGVDTLTGLATFSVLPSVNQLYGDNVTALASYVKSQLASYAKTVASASNGAVKEANLVEAFERQYDLIFNSQVPYTEVVFAPSGNSFAVEYWPLLPFSRGSVHIQSANASDYPAINPNYFMFDQDAEAQVTVAQYIRKALGTAPLNSLVGEEVSPGLDVLPASASSATWTKWVKENYRTNYHPVGTTSMLPREKGGVVSPELKVYGTKNVRVVDASVLPFQLCGHLTSTLYAVAERASDLIKESY
notes: otherwise wild type; pET30c, E. coli BL21(DE3), dialysed crude enzyme
Turning to B6, the Km turned out to be 3700 µM and the Vmax amounted to 0.7 µmol/min/mg.

B7: Aspergillus niger glucose dehydrogenase (FAD-GDH) Ang-n2 variant E195K/Q196R, SEQ ID NO: 2 (Aspergillus niger CBS 513.88; E195K/Q196R) (protein)
chain: YDFVIVGGGTSGLVVANRLSELSDVTVAVIEAGESALNNFNVSNVMGYSTAFGTEVDWAYQTENQTYAGGLQQTIRAGKALGGTSTINGMSYTRAEDVQIDNWEVLGNDGWNWKNLFQYYKKSEGFQVPTKDQIAHGASYNASYHGLNGPLKVGWPNSMTNSSVFPVLKRTFEKLGVQYNPDSEGGKMVGFTVHPDTLDREMNVREDAARAYYWPYEARSNLKIISNTRANKVIWANTTQGEAVAVGIEVTNAYGTETIYADKEVILSAGALRSPAILELSGIGNPDVLNKHNIPVKVNITTVGENLQDQTNNALSWEGVDTLTGLATFSVLPSVNQLYGDNVTALASYVKSQLASYAKTVASASNGAVKEANLVEAFERQYDLIFNSQVPYTEVVFAPSGNSFAVEYWPLLPFSRGSVHIQSANASDYPAINPNYFMFDQDAEAQVTVAQYIRKALGTAPLNSLVGEEVSPGLDVLPASASSATWTKWVKENYRTNYHPVGTTSMLPREKGGVVSPELKVYGTKNVRVVDASVLPFQLCGHLTSTLYAVAERASDLIKESY
notes: as for B1
Consider B7, for which the Km came to 2500 µM and the Vmax stood at 4.3 µmol/min/mg.

B8: Aspergillus niger glucose dehydrogenase (FAD-GDH) Ang-n3 variant E195K/Q196E, SEQ ID NO: 2 (Aspergillus niger CBS 513.88; E195K/Q196E) (protein)
chain: YDFVIVGGGTSGLVVANRLSELSDVTVAVIEAGESALNNFNVSNVMGYSTAFGTEVDWAYQTENQTYAGGLQQTIRAGKALGGTSTINGMSYTRAEDVQIDNWEVLGNDGWNWKNLFQYYKKSEGFQVPTKDQIAHGASYNASYHGLNGPLKVGWPNSMTNSSVFPVLKETFEKLGVQYNPDSEGGKMVGFTVHPDTLDREMNVREDAARAYYWPYEARSNLKIISNTRANKVIWANTTQGEAVAVGIEVTNAYGTETIYADKEVILSAGALRSPAILELSGIGNPDVLNKHNIPVKVNITTVGENLQDQTNNALSWEGVDTLTGLATFSVLPSVNQLYGDNVTALASYVKSQLASYAKTVASASNGAVKEANLVEAFERQYDLIFNSQVPYTEVVFAPSGNSFAVEYWPLLPFSRGSVHIQSANASDYPAINPNYFMFDQDAEAQVTVAQYIRKALGTAPLNSLVGEEVSPGLDVLPASASSATWTKWVKENYRTNYHPVGTTSMLPREKGGVVSPELKVYGTKNVRVVDASVLPFQLCGHLTSTLYAVAERASDLIKESY
notes: pET30c, E. coli BL21(DE3), dialysed crude enzyme
Regarding B8, the Km was determined as 2200 µM and the maximal velocity (Vmax) was 4.5 µmol/min/mg.

B9: Aspergillus niger glucose dehydrogenase (FAD-GDH) Ang-n1 variant E195K/Q196E, SEQ ID NO: 2 (Aspergillus niger CBS 513.88; E195K/Q196E) (protein)
chain: MDSPAHYDFVIVGGGTSGLVVANRLSELSDVTVAVIEAGESALNNFNVSNVMGYSTAFGTEVDWAYQTENQTYAGGLQQTIRAGKALGGTSTINGMSYTRAEDVQIDNWEVLGNDGWNWKNLFQYYKKSEGFQVPTKDQIAHGASYNASYHGLNGPLKVGWPNSMTNSSVFPVLKETFEKLGVQYNPDSEGGKMVGFTVHPDTLDREMNVREDAARAYYWPYEARSNLKIISNTRANKVIWANTTQGEAVAVGIEVTNAYGTETIYADKEVILSAGALRSPAILELSGIGNPDVLNKHNIPVKVNITTVGENLQDQTNNALSWEGVDTLTGLATFSVLPSVNQLYGDNVTALASYVKSQLASYAKTVASASNGAVKEANLVEAFERQYDLIFNSQVPYTEVVFAPSGNSFAVEYWPLLPFSRGSVHIQSANASDYPAINPNYFMFDQDAEAQVTVAQYIRKALGTAPLNSLVGEEVSPGLDVLPASASSATWTKWVKENYRTNYHPVGTTSMLPREKGGVVSPELKVYGTKNVRVVDASVLPFQLCGHLTSTLYAVAERASDLIKESY
notes: as for B1
As for B9, the Michaelis constant (Km) came to 2800 µM and the Vmax was found to be 2.5 µmol/min/mg.

What is called Km is the concentration of substrate that gives half-maximal velocity. For orientation: Vmax means the top rate of the reaction or transport when substrate is in excess.
